Results: publication PMC3859580, “The PS1 Hairpin of Mcm3 Is Essential for Viability and for DNA Unwinding In Vitro”

Target: Mcm2-7 complex (wild type) (Saccharomyces cerevisiae, UniProt P29469;P24279;P30665;P29496;P53091;P38132 1-868;1-971;1-933;1-775;1-1017;1-845)
Assay: EMSA; 5 mM ATP, 10 mM Mg acetate; 50-400 nM complex, 1 nM DNA; shifted band diminished by anti-Mcm7; EMSA: 20 mM Tris-HCl pH 7.5, 10 mM Mg acetate, 100 uM EDTA, 5 mM DTT, 5 mM ATP, 37 C, 10 min; 5% native TBE gel with 5% glycerol, 0.1% NP-40, 10 mM Mg acetate
Details: protein: recombinant; copies: 1;1;1;1;1;1; label: 5'-32P; single strand

B1: 90-base ssDNA oligonucleotide with (T)60 tail (ssDNA)
DNA: ATGTCCTAGCAAGCCAGAATTCGGCAGCGTCTTTTTTTTTTTTTTTTTTTTTTTTTTTTTTTTTTTTTTTTTTTTTTTTTTTTTTTTTTTT
B1: binds.
